Positions count from the first letter of the chain named. Numbers in names are those of the source.
T1: GST–regnase-1^D141N (human, UniProt Q5D1E8 1-599, D141N)
T1 sequence (looked up): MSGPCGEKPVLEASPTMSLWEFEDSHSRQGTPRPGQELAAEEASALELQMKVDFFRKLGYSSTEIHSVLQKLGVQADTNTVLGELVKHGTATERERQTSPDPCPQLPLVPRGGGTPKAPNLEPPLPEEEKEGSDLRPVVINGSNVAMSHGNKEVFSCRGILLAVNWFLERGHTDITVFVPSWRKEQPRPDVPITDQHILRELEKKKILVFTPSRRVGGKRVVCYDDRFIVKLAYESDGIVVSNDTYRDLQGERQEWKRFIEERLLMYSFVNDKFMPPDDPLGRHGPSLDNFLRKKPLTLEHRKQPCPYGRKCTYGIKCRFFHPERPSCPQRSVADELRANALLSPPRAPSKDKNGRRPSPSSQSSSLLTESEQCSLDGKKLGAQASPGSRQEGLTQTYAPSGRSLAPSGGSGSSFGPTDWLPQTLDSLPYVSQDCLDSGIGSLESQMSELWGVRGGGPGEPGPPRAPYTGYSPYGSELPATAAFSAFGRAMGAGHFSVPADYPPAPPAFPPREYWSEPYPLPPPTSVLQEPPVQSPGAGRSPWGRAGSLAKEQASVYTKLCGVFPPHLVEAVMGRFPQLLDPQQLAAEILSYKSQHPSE

B1: Roquin-1^aa2-440;E212K (domain or fragment, UniProt Q4VGL6 2-440, looked up)
chain: PVQAPQWTDFLSCPICTQTFDETIRKPISLGCGHTVCKMCLNKLHRKACPFDQTTINTDIELLPVNSALLQLVGAQIPEQQPITLCSGVEDTKHYEEAKKCVEELALYLKPLSSARGVGLNSTTQSVLSRPMQRKLVTLVHCQLVEEEGRIRAMRAARSLGERTVTELILQHQNPQQLSSNLWAAVRARGCQFLGPAMQEEALKLVLLALKDGSALSRKVLVLFVVQRLEPRFPQASKTSIGHVVQLLYRASCFKVTKRDEDSSLMQLKEEFRTYEALRREHDSQIVQIAMEAGLRIAPDQWSSLLYGDQSHKSHMQSIIDKLQTPASFAQSVQELTIALQRTGDPANLNRLRPHLELLANIDPSPDAPPPTWEQLENGLVAVRTVVHGLVDYIQNHSKKGADQQQPPQHSKYKTYMCRDMKQRGGCPRGASCTFAHSQ
B2: Roquin-1^aa2-440;M199R (domain or fragment, UniProt Q4VGL6 2-440, looked up)
chain: B1 chain with M198R, K211E
B3: Roquin-1^aa2-440;L209Y (domain or fragment, UniProt Q4VGL6 2-440, looked up)
chain: B1 chain with L208Y, K211E

target: T1, GST–regnase-1^D141N; test: pull-down

Fold reduction of binding against SUMO–roquin-1^aa2-440 wild type, 2 fold:
B1
B2
B3

From PMC8996344 (Nature immunology, 2021)
